Laboratory results: patent publication US20240124553A1

Legend:
Experiment in all cases: flow cytometry, transfected 293T cells
[1] = molecular target: CHIKV E2-E1 envelope glycoproteins (strain S27), E2 mutant E40A (chikungunya virus strain S27) (UniProt Q8JUX5)
[2] = molecular target: CHIKV E2-E1 envelope glycoproteins (strain S27), E2 mutant A41S (chikungunya virus strain S27) (UniProt Q8JUX5)
[3] = molecular target: CHIKV E2-E1 envelope glycoproteins (strain S27), E2 mutant R104A (chikungunya virus strain S27) (UniProt Q8JUX5)
[4] = molecular target: CHIKV E2-E1 envelope glycoproteins (strain S27), E2 mutant T96A (chikungunya virus strain S27) (UniProt Q8JUX5)
[5] = molecular target: CHIKV E2-E1 envelope glycoproteins (strain S27), E2 mutant T65A (chikungunya virus strain S27) (UniProt Q8JUX5)
[6] = molecular target: CHIKV E2-E1 envelope glycoproteins (strain S27), E2 mutant A78S (chikungunya virus strain S27) (UniProt Q8JUX5)
[7] = molecular target: CHIKV E2-E1 envelope glycoproteins (strain S27), E2 mutant G108A (chikungunya virus strain S27) (UniProt Q8JUX5)
[8] = molecular target: CHIKV E2-E1 envelope glycoproteins (strain S27), E2 mutant T92A (chikungunya virus strain S27) (UniProt Q8JUX5)
[9] = molecular target: CHIKV E2-E1 envelope glycoproteins (strain S27), E2 mutant V32A (chikungunya virus strain S27) (UniProt Q8JUX5)
[10] = molecular target: CHIKV E2-E1 envelope glycoproteins (strain S27), E2 mutant A81S (chikungunya virus strain S27) (UniProt Q8JUX5)
[11] = molecular target: CHIKV E2-E1 envelope glycoproteins (strain S27), E2 mutant K47A (chikungunya virus strain S27) (UniProt Q8JUX5)
[12] = molecular target: CHIKV E2-E1 envelope glycoproteins (strain S27), E2 mutant T126A (chikungunya virus strain S27) (UniProt Q8JUX5)
[13] = molecular target: CHIKV E2-E1 envelope glycoproteins (strain S27), E2 mutant D132A (chikungunya virus strain S27) (UniProt Q8JUX5)
[14] = molecular target: CHIKV E2-E1 envelope glycoproteins (strain S27), E2 mutant P106A (chikungunya virus strain S27) (UniProt Q8JUX5)
[15] = molecular target: CHIKV E2-E1 envelope glycoproteins (strain S27), E2 mutant T45A (chikungunya virus strain S27) (UniProt Q8JUX5)
[16] = molecular target: CHIKV E2-E1 envelope glycoproteins (strain S27), E2 mutant R80A (chikungunya virus strain S27) (UniProt Q8JUX5)
[17] = molecular target: CHIKV E2-E1 envelope glycoproteins (strain S27), E2 mutant D63A (chikungunya virus strain S27) (UniProt Q8JUX5)
[18] = molecular target: CHIKV E2-E1 envelope glycoproteins (strain S27), E2 mutant W64A (chikungunya virus strain S27) (UniProt Q8JUX5)
[19] = molecular target: CHIKV E2-E1 envelope glycoproteins (strain S27), E2 mutant V50A (chikungunya virus strain S27) (UniProt Q8JUX5)
[20] = molecular target: CHIKV E2-E1 envelope glycoproteins (strain S27), E2 mutant H73A (chikungunya virus strain S27) (UniProt Q8JUX5)
[21] = molecular target: CHIKV E2-E1 envelope glycoproteins (strain S27), E2 mutant I101A (chikungunya virus strain S27) (UniProt Q8JUX5)
[22] = molecular target: CHIKV E2-E1 envelope glycoproteins (strain S27), E2 mutant T42A (chikungunya virus strain S27) (UniProt Q8JUX5)
[23] = molecular target: CHIKV E2-E1 envelope glycoproteins (strain S27), E2 mutant C91A (chikungunya virus strain S27) (UniProt Q8JUX5)
[24] = molecular target: CHIKV E2-E1 envelope glycoproteins (strain S27), E2 mutant H130A (chikungunya virus strain S27) (UniProt Q8JUX5)
[25] = molecular target: CHIKV E2-E1 envelope glycoproteins (strain S27), E2 mutant G44A (chikungunya virus strain S27) (UniProt Q8JUX5)
[26] = molecular target: CHIKV E2-E1 envelope glycoproteins (strain S27), E2 mutant S124A (chikungunya virus strain S27) (UniProt Q8JUX5)
[27] = molecular target: CHIKV E2-E1 envelope glycoproteins (strain S27), E2 mutant S122A (chikungunya virus strain S27) (UniProt Q8JUX5)
[28] = molecular target: CHIKV E2-E1 envelope glycoproteins (strain S27), E2 mutant H131A (chikungunya virus strain S27) (UniProt Q8JUX5)
[29] = molecular target: CHIKV E2-E1 envelope glycoproteins (strain S27), E2 mutant P90A (chikungunya virus strain S27) (UniProt Q8JUX5)
[30] = molecular target: CHIKV E2-E1 envelope glycoproteins (strain S27), E2 mutant D71A (chikungunya virus strain S27) (UniProt Q8JUX5)
[31] = molecular target: CHIKV E2-E1 envelope glycoproteins (strain S27), E2 mutant S88A (chikungunya virus strain S27) (UniProt Q8JUX5)
[32] = molecular target: CHIKV E2-E1 envelope glycoproteins (strain S27), E2 mutant L52A (chikungunya virus strain S27) (UniProt Q8JUX5)
[33] = molecular target: CHIKV E2-E1 envelope glycoproteins (strain S27), E2 mutant V113A (chikungunya virus strain S27) (UniProt Q8JUX5)

Substance | Binding Reactivity (% WT) [1] [% WT] | Binding Reactivity (% WT) [2] [% WT] | Binding Reactivity (% WT) [3] [% WT] | Binding Reactivity (% WT) [4] [% WT] | Binding Reactivity (% WT) [5] [% WT] | Binding Reactivity (% WT) [6] [% WT] | Binding Reactivity (% WT) [7] [% WT] | Binding Reactivity (% WT) [8] [% WT] | Binding Reactivity (% WT) [9] [% WT] | Binding Reactivity (% WT) [10] [% WT] | Binding Reactivity (% WT) [11] [% WT] | Binding Reactivity (% WT) [12] [% WT] | Binding Reactivity (% WT) [13] [% WT] | Binding Reactivity (% WT) [14] [% WT] | Binding Reactivity (% WT) [15] [% WT] | Binding Reactivity (% WT) [16] [% WT] | Binding Reactivity (% WT) [17] [% WT] | Binding Reactivity (% WT) [18] [% WT] | Binding Reactivity (% WT) [19] [% WT] | Binding Reactivity (% WT) [20] [% WT] | further results
CHIKV mAb CHKV-88 (antibody) | 108 | 89.8 | 76 | 103 | 87.9 | 126 | 71.1 | 109 | 84.8 | 82.3 | 100 | 95.1 | 120 | 105 | 85.7 | 128 | 85 | 126 | 78.6 | 91.8 | Binding Reactivity (% WT) [21]: 44.5 % WT; Binding Reactivity (% WT) [22]: 112 % WT; Binding Reactivity (% WT) [23]: 4 % WT; Binding Reactivity (% WT) [24]: 110 % WT; Binding Reactivity (% WT) [25]: 98.1 % WT; Binding Reactivity (% WT) [26]: 112 % WT; Binding Reactivity (% WT) [27]: 84.3 % WT; Binding Reactivity (% WT) [28]: 56.3 % WT; Binding Reactivity (% WT) [29]: 119 % WT; Binding Reactivity (% WT) [30]: 108 % WT; Binding Reactivity (% WT) [31]: 111 % WT; Binding Reactivity (% WT) [32]: 100 % WT; Binding Reactivity (% WT) [33]: 112 % WT
CHIKV mAb C9 (antibody) | 107 | 70.7 | 91.6 | 99.2 | 71.1 | 84.1 | 71.9 | 96 | 44 | 86.6 | 84 | 106 | 94.4 | 88.9 | 71.7 | 68.8 | 71.8 | 60.6 | 76.7 | 89.6 | Binding Reactivity (% WT) [21]: 26.6 % WT; Binding Reactivity (% WT) [22]: 102 % WT; Binding Reactivity (% WT) [23]: 0.6 % WT; Binding Reactivity (% WT) [24]: 106 % WT; Binding Reactivity (% WT) [25]: 72.5 % WT; Binding Reactivity (% WT) [26]: 116 % WT; Binding Reactivity (% WT) [27]: 98.7 % WT; Binding Reactivity (% WT) [28]: 24.4 % WT; Binding Reactivity (% WT) [29]: 100 % WT; Binding Reactivity (% WT) [30]: 91.8 % WT; Binding Reactivity (% WT) [31]: 122 % WT; Binding Reactivity (% WT) [32]: 84.7 % WT; Binding Reactivity (% WT) [33]: 81.8 % WT
